The values that follow come from patent publication CN116041496A.

The target in the test is H7N9亚型禽流感病毒血凝素(HA)，野生型病毒上 (H7N9亚型禽流感病毒). The experiment in a line: cell-based or functional assay.

B1: H7N9-NeuAb (antibody, V domains shown)
VH: QVQLQQPRAELVMPGASVRMSCQASGYTFTDFWIHWVKQRPGQGLEWIGAIDTSDSYTTYNQNFRGKASLTVDESSSTAYMQLSSLTSEDSAVYYCARLDDGFYNYAMDYWGQGTSVTVSS
VL: NIMMTQSPSSLAVSAGEKVTLNCKSSQSVLNSSNQKNYLAWYQQRPGQSPKLLIYWASTREAGVPDRFTGSGSGTDFTLTISSVKAEDLAVYYCHQYLSSYTFGGGTKLKIK
Molecule B1 had an HI 终点浓度 of 1.5 µg/mL, an HI效价 of 512, a 中和 终点浓度 of 0.15 µg/mL and a 中和效价 of 5120.
